Data taken from US20260224701A1 (University of Texas, published 2026).

How the values were obtained:
Test in all cases: biolayer interferometry (Octet), antibody captured on the probe, extracellular domain in solution
[1] = target: T1, human 2Ig-B7-H3 extracellular domain (human, UniProt Q5ZPR3 29-466)
T1 chain: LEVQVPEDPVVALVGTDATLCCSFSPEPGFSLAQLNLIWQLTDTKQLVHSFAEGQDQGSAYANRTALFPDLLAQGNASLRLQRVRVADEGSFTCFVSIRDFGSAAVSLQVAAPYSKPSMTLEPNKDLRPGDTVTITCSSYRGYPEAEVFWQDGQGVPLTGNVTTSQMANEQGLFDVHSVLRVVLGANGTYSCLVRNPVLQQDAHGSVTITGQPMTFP

[2] = target: T2, Porcine 4Ig-B7-H3 extracellular domain (porcine, UniProt A0A287AJ27 27-466)
T2 construct: extracellular domain; Bought protein; also called Porcine 4Ig-B7H-3 protein
Description: (§1) The extracellular domains of the indicated 4Ig-B7-H3 and 2Ig-B7-H3 proteins were purchased from R&D systems. All proteins were validated by the vendor to be both pure and functional. KD values were determined utilizing capture biolayer interferometry (Octet, Molecular Devices) in “affinity” mode, wherein the […] antibody was captured on the tip of the probe and placed into solutions containing different concentrations of target extracellular domain.

[3] = target: T3, Cynomolgus 4Ig-B7-H3 extracellular domain (cynomolgus)
T3 construct: extracellular domain; Bought protein; also called Cynomolgus 4Ig-B7H-3 protein
Description: as §1

B1: MIL33B-H1-hIgG1 (antibody, V domains shown)
VH: QVQLVQSGAEVKKPGASVKVSCKASGYTFTSYVMHWVRQAPGQRLEWMGYINSYSDGTKYNEKFKGRVTITSDTSASTAYMELSSLRSEDTAVYYCARWGGLGNGAMDYWGQGTLVTVSS
VL: EIVLTQSPATLSLSPGERATLSCSVSSSVNYMHWYQQKPGQAPRRLIYDTSKLASGIPARFSGSGSGTDYTLTISSLEPEDFAVYYCQQWTSNPLTFGQGTKLEIK
notes: also called AHF15945; AHF 15945
B1 showed a Kd [1] of 21.6 nM.

B2: MIL33B-H2-hIgG1 (antibody, V domains shown)
VH: QVQLVQSGAEVKKPGASVKVSCKASGYTFTSYVMHWVRQAPGQRLEWMGYINSYSDGTKYNEKFKGRATITRDTSASTAYMELSSLRSEDTAVYYCARWGGLGNGAMDYWGQGTLVTVSS
VL: EIVLTQSPATLSLSPGERATLSCSVSSSVNYMHWYQQKPGQAPRRLIYDTSKLASGIPARFSGSGSGTDYTLTISSLEPEDFAVYYCQQWTSNPLTFGQGTKLEIK
notes: also called AHF15938; AHF 15938
With B2 the Kd [1] was 14 nM.

B3: MIL33B-H3-hIgG1 (antibody, V domains shown)
VH: QVQLVQSGAEVKKPGASVKVSCKASGYTFTSYVMHWVRQAPGQRLEWMGYINSYSDGTKYNEKFKGRVTITRDTSASTAYMELSSLRSEDTAVYYCARWGGLGNGAMDYWGQGTLVTVSS
VL: EIVLTQSPATLSLSPGERATLSCSVSSSVNYMHWYQQKPGQAPRRLIYDTSKLASGIPARFSGSGSGTDYTLTISSLEPEDFAVYYCQQWTSNPLTFGQGTKLEIK
notes: also called hMIL33B-H3; humanized MIL33B-H3
Binder B3 has a Kd [2] of 0.559 nM, a Kd [3] of 0.28 nM and a Kd [1] of 43.5 nM.

B4: MIL33B chimeric antibody (full-length IgG) (antibody, V domains shown)
VH: EVQLQQSGPELVKPGASVKMSCKASGYTFTSYVMHWVRQSPGQGLEGIGYINSYSDGTKYNEKFKGKATLTSDKSSSTAYMELSGLTSEDSAVYYCARWGGLGNGAMDYWGQGTSVTVSS
VL: QIVLTQSPAIMSASPGEKVTMTCSVSSSVNYMHWYQQKSGTSPKRWIYDTSKLASGVPARFSASGSGTSYSLTISSMEAEDAATYYCQQWTSNPLTFGAGTKLELKR
notes: also called Chimeric VH + VL; MIL33B-chimera
For B4, the Kd [1] was 13.2 nM.
